Test results: the supplement of paper PMC10724198
± gives the standard deviation of the averaged measurements.

Experiments:
[1] = tested on: Saccharomyces cerevisiae; test: protein stability index of tFT-peptide fusion (C-terminal peptide) (PSI (0-1 scale)); higher = more stable (slower turnover)
Method: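 MPS profiling in S. cerevisiae of the tFT-X12 degron library: putative degron peptides plus stable controls, 12 aa, fused to the C-terminus of a sfGFP-mCherry timer. Cells are FACS-sorted into 8 mCherry/sfGFP bins and deep-sequenced. PSI runs from 0 (unstable) to 1 (stable). Backgrounds are wild type, das1Δ and doa10Δ at 30 °C, and wild type, das1Δ, cdc34-1 and cdc53-1 at 37 °C; 2-3 technical replicates each.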

[2] = tested on: Saccharomyces cerevisiae; test: as above; conditions: genetic background: wild type; temperature: 30 C
[3] = genetic background: cdc34-1, temperature: 37 C
[4] = genetic background: cdc53-1, temperature: 37 C
[5] = genetic background: das1 deletion, temperature: 30 C
[6] = genetic background: das1 deletion, temperature: 37 C
[7] = genetic background: doa10 deletion, temperature: 30 C
[8] = genetic background: wild type, temperature: 30 C
[9] = genetic background: wild type, temperature: 37 C
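Further: PSI is a weighted mean of sequencing reads over stability bins, variants kept only with over 10 reads, mCherry proximal and sfGFP distal, peptide attached via GGGS linker.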

## ACACFWVVWVGW
[1]; [3]
  protein stability index: 0.262 ± 0.027
[1]; [4]
  protein stability index: 0.374 ± 0.021
[1]; [5]
  protein stability index: 0.248 ± 0.024
[1]; [6]
  protein stability index: 0.4309 ± 0.0018
[1]; [7]
  protein stability index: 0.217 ± 0.021
[1]; [8]
  protein stability index: 0.238 ± 0.035
[1]; [9]
  protein stability index: 0.402 ± 0.0083
[2]
  protein stability index: 0.378 ± 0.03

## ACEFRFFYVFRC
[1]; [3]
  protein stability index: 0.304 ± 0.0093
[1]; [4]
  protein stability index: 0.245 ± 0.016
[1]; [5]
  protein stability index: 0.31 ± 0.056
[1]; [6]
  protein stability index: 0.425 ± 0.015
[1]; [7]
  protein stability index: 0.278 ± 0.0034
[1]; [8]
  protein stability index: 0.176 ± 0.016
[1]; [9]
  protein stability index: 0.287 ± 0.034
[2]
  protein stability index: 0.315 ± 0.008

## AERPVLIIIEFG
[1]; [3]
  protein stability index: 0.416 ± 0.039
[1]; [4]
  protein stability index: 0.532 ± 0.064
[1]; [5]
  protein stability index: 0.337 ± 0.031
[1]; [6]
  protein stability index: 0.5315 ± 0.0052
[1]; [7]
  protein stability index: 0.296 ± 0.015
[1]; [8]
  protein stability index: 0.339 ± 0.047
[1]; [9]
  protein stability index: 0.5248 ± 0.0013
[2]
  protein stability index: 0.417 ± 0.027

## AFFCTLCLFLVS
[1]; [3]
  protein stability index: 0.44 ± 0.02
[1]; [4]
  protein stability index: 0.472 ± 0.033
[1]; [5]
  protein stability index: 0.36 ± 0.036
[1]; [6]
  protein stability index: 0.496 ± 0.012
[1]; [7]
  protein stability index: 0.3064 ± 0.002
[1]; [8]
  protein stability index: 0.323 ± 0.037
[1]; [9]
  protein stability index: 0.478 ± 0.023
[2]
  protein stability index: 0.402 ± 0.014

## AFLCVFGFCFFV
[1]; [3]
  protein stability index: 0.423 ± 0.015
[1]; [4]
  protein stability index: 0.455 ± 0.014
[1]; [5]
  protein stability index: 0.372 ± 0.035
[1]; [6]
  protein stability index: 0.482 ± 0.026
[1]; [7]
  protein stability index: 0.285 ± 0.008
[1]; [8]
  protein stability index: 0.278 ± 0.019
[1]; [9]
  protein stability index: 0.407 ± 0.025
[2]
  protein stability index: 0.339 ± 0.037

## AFRLRHEIISLM
[1]; [3]
  protein stability index: 0.552 ± 0.081
[1]; [4]
  protein stability index: 0.726 ± 0.024
[1]; [5]
  protein stability index: 0.63 ± 0.056
[1]; [6]
  protein stability index: 0.744 ± 0.037
[1]; [7]
  protein stability index: 0.136 ± 0.0049
[1]; [8]
  protein stability index: 0.139 ± 0.037
[1]; [9]
  protein stability index: 0.344 ± 0.041
[2]
  protein stability index: 0.282 ± 0.013

## AGGLLIGSVGVG
[1]; [3]
  protein stability index: 0.434 ± 0.013
[1]; [4]
  protein stability index: 0.468 ± 0.0094
[1]; [5]
  protein stability index: 0.4439 ± 0.0038
[1]; [6]
  protein stability index: 0.468 ± 0.0066
[1]; [7]
  protein stability index: 0.4523 ± 0.0042
[1]; [8]
  protein stability index: 0.4436 ± 0.0017
[1]; [9]
  protein stability index: 0.4604 ± 0.0028
[2]
  protein stability index: 0.45 ± 0.008

## AISLPVEVLAFS
[1]; [3]
  protein stability index: 0.4 ± 0.028
[1]; [4]
  protein stability index: 0.387 ± 0.024
[1]; [5]
  protein stability index: 0.286 ± 0.051
[1]; [6]
  protein stability index: 0.438 ± 0.022
[1]; [7]
  protein stability index: 0.255 ± 0.025
[1]; [8]
  protein stability index: 0.293 ± 0.01
[1]; [9]
  protein stability index: 0.439 ± 0.021
[2]
  protein stability index: 0.383 ± 0.048

## AKVSFYALARQY
[1]; [3]
  protein stability index: 0.665 ± 0.017
[1]; [4]
  protein stability index: 0.715 ± 0.018
[1]; [5]
  protein stability index: 0.636 ± 0.018
[1]; [6]
  protein stability index: 0.726 ± 0.016
[1]; [7]
  protein stability index: 0.323 ± 0.0065
[1]; [8]
  protein stability index: 0.355 ± 0.025
[1]; [9]
  protein stability index: 0.563 ± 0.0078
[2]
  protein stability index: 0.414 ± 0.036

## ALEFLLLVCRRL
[1]; [3]
  protein stability index: 0.589 ± 0.026
[1]; [4]
  protein stability index: 0.621 ± 0.024
[1]; [5]
  protein stability index: 0.457 ± 0.011
[1]; [6]
  protein stability index: 0.6018 ± 0.0059
[1]; [7]
  protein stability index: 0.31 ± 0.026
[1]; [8]
  protein stability index: 0.334 ± 0.028
[1]; [9]
  protein stability index: 0.517 ± 0.013
[2]
  protein stability index: 0.418 ± 0.012

## ALFLYNCVVVTD
[1]; [3]
  protein stability index: 0.0493 ± 0.0086
[1]; [4]
  protein stability index: 0.137 ± 0.018
[1]; [5]
  protein stability index: 0.146 ± 0.04
[1]; [6]
  protein stability index: 0.25 ± 0.015
[1]; [7]
  protein stability index: 0.132 ± 0.011
[1]; [8]
  protein stability index: 0.143 ± 0.045
[1]; [9]
  protein stability index: 0.188 ± 0.056
[2]
  protein stability index: 0.136 ± 0.0097

## ALLYIVVGWSLS
[1]; [3]
  protein stability index: 0.0455 ± 0.011
[1]; [4]
  protein stability index: 0.185 ± 0.033
[1]; [5]
  protein stability index: 0.167 ± 0.026
[1]; [6]
  protein stability index: 0.285 ± 0.025
[1]; [7]
  protein stability index: 0.12 ± 0.019
[1]; [8]
  protein stability index: 0.145 ± 0.027
[1]; [9]
  protein stability index: 0.231 ± 0.0024
[2]
  protein stability index: 0.24 ± 0.074

## ALRLVAFFWVPG
[1]; [3]
  protein stability index: 0.482 ± 0.063
[1]; [4]
  protein stability index: 0.536 ± 0.038
[1]; [5]
  protein stability index: 0.427 ± 0.025
[1]; [6]
  protein stability index: 0.5392 ± 0.0037
[1]; [7]
  protein stability index: 0.415 ± 0.035
[1]; [8]
  protein stability index: 0.4099 ± 0.0011
[1]; [9]
  protein stability index: 0.5126 ± 0.0048
[2]
  protein stability index: 0.422 ± 0.0081

## ALTLSYAIKLKV
[1]; [3]
  protein stability index: 0.36 ± 0.02
[1]; [4]
  protein stability index: 0.395 ± 0.022
[1]; [5]
  protein stability index: 0.313 ± 0.032
[1]; [6]
  protein stability index: 0.4594 ± 0.00077
[1]; [7]
  protein stability index: 0.248 ± 0.0066
[1]; [8]
  protein stability index: 0.265 ± 0.025
[1]; [9]
  protein stability index: 0.401 ± 0.027
[2]
  protein stability index: 0.372 ± 0.014

## AMFQLRLLVGSV
[1]; [3]
  protein stability index: 0.489 ± 0.036
[1]; [4]
  protein stability index: 0.508 ± 0.018
[1]; [5]
  protein stability index: 0.386 ± 0.037
[1]; [6]
  protein stability index: 0.5436 ± 0.0049
[1]; [7]
  protein stability index: 0.36 ± 0.016
[1]; [8]
  protein stability index: 0.391 ± 0.0056
[1]; [9]
  protein stability index: 0.5001 ± 0.0027
[2]
  protein stability index: 0.499 ± 0.033

## APASFRVLISAF
[1]; [3]
  protein stability index: 0.021 ± 0.0017
[1]; [4]
  protein stability index: 0.0368 ± 0.0029
[1]; [5]
  protein stability index: 0.118 ± 0.035
[1]; [6]
  protein stability index: 0.102 ± 0.013
[1]; [7]
  protein stability index: 0.0642 ± 0.012
[1]; [8]
  protein stability index: 0.0969 ± 0.034
[1]; [9]
  protein stability index: 0.0646 ± 0.018
[2]
  protein stability index: 0.136 ± 0.0083

## APPRSLSPPLLS
[1]; [3]
  protein stability index: 0.6637 ± 0.0036
[1]; [4]
  protein stability index: 0.701 ± 0.011
[1]; [5]
  protein stability index: 0.672 ± 0.022
[1]; [6]
  protein stability index: 0.71 ± 0.0073
[1]; [7]
  protein stability index: 0.679 ± 0.0075
[1]; [8]
  protein stability index: 0.6795 ± 0.0034
[1]; [9]
  protein stability index: 0.689 ± 0.016

## ARFFFFCVGILI
[1]; [3]
  protein stability index: 0.379 ± 0.0081
[1]; [4]
  protein stability index: 0.474 ± 0.067
[1]; [5]
  protein stability index: 0.339 ± 0.066
[1]; [6]
  protein stability index: 0.503 ± 0.046
[1]; [7]
  protein stability index: 0.295 ± 0.035
[1]; [8]
  protein stability index: 0.354 ± 0.017
[1]; [9]
  protein stability index: 0.4581 ± 0.0031
[2]
  protein stability index: 0.378 ± 0.035

## ARKWVAVTVTLW
[1]; [3]
  protein stability index: 0.137 ± 0.038
[1]; [4]
  protein stability index: 0.232 ± 0.013
[1]; [5]
  protein stability index: 0.187 ± 0.036
[1]; [6]
  protein stability index: 0.3519 ± 0.00085
[1]; [7]
  protein stability index: 0.148 ± 0.021
[1]; [8]
  protein stability index: 0.189 ± 0.029
[1]; [9]
  protein stability index: 0.317 ± 0.011
[2]
  protein stability index: 0.267 ± 0.043

## ARVSLSFVSVSA
[1]; [3]
  protein stability index: 0.4168 ± 0.004
[1]; [4]
  protein stability index: 0.442 ± 0.012
[1]; [5]
  protein stability index: 0.279 ± 0.03
[1]; [6]
  protein stability index: 0.494 ± 0.007
[1]; [7]
  protein stability index: 0.225 ± 0.0052
[1]; [8]
  protein stability index: 0.281 ± 0.014
[1]; [9]
  protein stability index: 0.4672 ± 0.0023
[2]
  protein stability index: 0.404 ± 0.015

## ARWNTDRRRRQL
[1]; [3]
  protein stability index: 0.6089 ± 0.0047
[1]; [4]
  protein stability index: 0.711 ± 0.024
[1]; [5]
  protein stability index: 0.688 ± 0.045
[1]; [6]
  protein stability index: 0.7022 ± 0.0017
[1]; [7]
  protein stability index: 0.236 ± 0.0035
[1]; [8]
  protein stability index: 0.253 ± 0.034
[1]; [9]
  protein stability index: 0.502 ± 0.025
[2]
  protein stability index: 0.421 ± 0.017

## ASIEVGNVIKQM
[1]; [3]
  protein stability index: 0.672 ± 0.051
[1]; [4]
  protein stability index: 0.7189 ± 0.0025
[1]; [5]
  protein stability index: 0.627 ± 0.036
[1]; [6]
  protein stability index: 0.7202 ± 0.0061
[1]; [7]
  protein stability index: 0.375 ± 0.0075
[1]; [8]
  protein stability index: 0.43 ± 0.019
[1]; [9]
  protein stability index: 0.632 ± 0.027
[2]
  protein stability index: 0.518 ± 0.037
